# Data reported in US20180155692A1.
# Biological target: activin-like kinase receptor 3 (ALK3) (human) (UniProt P36894)
# Assay: cell-based or functional assay
# activin-like kinase receptor 3 (ALK3) (human), sequence (P36894 24-532): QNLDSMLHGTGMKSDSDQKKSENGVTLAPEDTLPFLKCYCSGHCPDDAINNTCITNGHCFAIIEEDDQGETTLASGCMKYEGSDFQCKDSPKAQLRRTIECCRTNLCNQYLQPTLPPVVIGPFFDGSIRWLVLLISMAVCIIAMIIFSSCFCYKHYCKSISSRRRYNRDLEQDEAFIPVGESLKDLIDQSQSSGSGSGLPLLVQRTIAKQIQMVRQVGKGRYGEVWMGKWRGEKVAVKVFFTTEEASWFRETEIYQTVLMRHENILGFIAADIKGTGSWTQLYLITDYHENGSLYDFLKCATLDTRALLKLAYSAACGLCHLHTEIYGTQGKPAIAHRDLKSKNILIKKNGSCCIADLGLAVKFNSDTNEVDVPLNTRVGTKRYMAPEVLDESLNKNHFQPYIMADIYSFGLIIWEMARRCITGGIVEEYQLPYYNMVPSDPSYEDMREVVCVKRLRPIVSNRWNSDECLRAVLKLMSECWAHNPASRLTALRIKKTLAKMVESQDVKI
# Bone morphogenetic protein 7 (BMP-7), sequence (P18075 293-431 limits assumed): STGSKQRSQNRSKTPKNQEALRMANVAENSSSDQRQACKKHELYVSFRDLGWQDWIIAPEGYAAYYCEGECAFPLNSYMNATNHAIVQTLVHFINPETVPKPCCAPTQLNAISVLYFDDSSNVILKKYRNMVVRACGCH
substance,measurement,value
Bone morphogenetic protein 7 (BMP-7) (from UniProt P18075 293-431) (ligand),"BMP-7-mediated induction of C-peptide compared to t=0 (n=4), BMP-7 alone",314 fold
same,"BMP-7-mediated induction of C-peptide compared to t=0 (n=4), in the presence of dorsomorphin (inhibitor of SMAD1/5/8 phosphorylation)",108 fold
same,"C-peptide induction on hNEPT, fold vs. t=0 (n=4, comparison with THR-123)",261 fold
same,"C-peptide production on hNEPT, fold vs. t=0 (n=6, comparison with BMP-4)",156 fold
same,insulin expression by qRT-PCR in ALK3+-sorted cells vs. non-BMP-7 treated controls,1000 fold
Bone morphogenetic protein 4 (BMP-4) (from UniProt P12644 293-408) (ligand),"C-peptide production on hNEPT, fold vs. t=0 (n=6)",198 fold
THR-123 (peptide),"C-peptide induction on hNEPT, fold vs. t=0 (n=4)",318 fold
